Data set [1] deals with the molecule itself. Description: negative-stain electron microscopy; purified co-expressed complex at 0.01-0.02 mg/mL in 25 mM HEPES pH 7.5, 150 mM NaCl, 1 mM TCEP, 10% glycerol; uranyl acetate stain; 2D classes and 3D map (C1, ~22 Å).
Data set [2] deals with T1, human glycogen synthase 1 (GS1) R603A (human, UniProt P13807 1-737, R603A, phosphorylation at S8, S641 and S641/S645 probed by immunoblot (Fig. 4b)).
T1 construct: glycogen synthase 1 (muscle), human, encoded by GYS1, cDNA NM 002103; also called GS R603A; not shown: His6, N-terminal, cleaved
T1 sequence (looked up): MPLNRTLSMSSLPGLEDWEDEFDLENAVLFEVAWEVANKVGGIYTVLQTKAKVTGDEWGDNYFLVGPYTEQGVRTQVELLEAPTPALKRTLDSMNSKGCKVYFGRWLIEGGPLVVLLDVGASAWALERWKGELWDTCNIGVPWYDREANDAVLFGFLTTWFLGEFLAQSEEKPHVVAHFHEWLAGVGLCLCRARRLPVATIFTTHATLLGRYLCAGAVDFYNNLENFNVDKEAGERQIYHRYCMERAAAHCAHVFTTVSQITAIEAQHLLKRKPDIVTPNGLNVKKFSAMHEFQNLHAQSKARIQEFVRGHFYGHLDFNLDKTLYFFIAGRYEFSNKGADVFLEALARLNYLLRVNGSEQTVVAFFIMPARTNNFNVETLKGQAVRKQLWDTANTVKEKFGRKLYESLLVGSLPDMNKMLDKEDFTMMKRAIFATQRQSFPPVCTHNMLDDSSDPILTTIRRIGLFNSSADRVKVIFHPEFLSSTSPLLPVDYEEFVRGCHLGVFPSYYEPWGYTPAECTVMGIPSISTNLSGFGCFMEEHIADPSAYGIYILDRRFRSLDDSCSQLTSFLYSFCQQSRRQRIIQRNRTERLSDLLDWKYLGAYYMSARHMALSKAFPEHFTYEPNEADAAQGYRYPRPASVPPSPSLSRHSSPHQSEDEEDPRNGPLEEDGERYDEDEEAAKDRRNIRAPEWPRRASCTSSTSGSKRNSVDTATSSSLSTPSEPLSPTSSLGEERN
Description: co-purification (HisTrap, TEV cleavage, Ni subtraction, Superdex200 gel filtration); GS WT or mutant co-expressed with GN(Y195F) in insect cells, both with N-terminal His6-TEV; lysate loaded on the HisTrap column. The settings on record: partners not purified.

In data set [3] the target is T2, human glycogen synthase 1 (GS1) W18A (human, UniProt P13807 1-737, W18A, phosphorylation at S8, S641 and S641/S645 probed by immunoblot (Fig. 4b)).
T2 construct: glycogen synthase 1 (muscle), human, encoded by GYS1, cDNA NM 002103; also called GS W18A; not shown: His6, N-terminal, cleaved
T2 sequence (looked up): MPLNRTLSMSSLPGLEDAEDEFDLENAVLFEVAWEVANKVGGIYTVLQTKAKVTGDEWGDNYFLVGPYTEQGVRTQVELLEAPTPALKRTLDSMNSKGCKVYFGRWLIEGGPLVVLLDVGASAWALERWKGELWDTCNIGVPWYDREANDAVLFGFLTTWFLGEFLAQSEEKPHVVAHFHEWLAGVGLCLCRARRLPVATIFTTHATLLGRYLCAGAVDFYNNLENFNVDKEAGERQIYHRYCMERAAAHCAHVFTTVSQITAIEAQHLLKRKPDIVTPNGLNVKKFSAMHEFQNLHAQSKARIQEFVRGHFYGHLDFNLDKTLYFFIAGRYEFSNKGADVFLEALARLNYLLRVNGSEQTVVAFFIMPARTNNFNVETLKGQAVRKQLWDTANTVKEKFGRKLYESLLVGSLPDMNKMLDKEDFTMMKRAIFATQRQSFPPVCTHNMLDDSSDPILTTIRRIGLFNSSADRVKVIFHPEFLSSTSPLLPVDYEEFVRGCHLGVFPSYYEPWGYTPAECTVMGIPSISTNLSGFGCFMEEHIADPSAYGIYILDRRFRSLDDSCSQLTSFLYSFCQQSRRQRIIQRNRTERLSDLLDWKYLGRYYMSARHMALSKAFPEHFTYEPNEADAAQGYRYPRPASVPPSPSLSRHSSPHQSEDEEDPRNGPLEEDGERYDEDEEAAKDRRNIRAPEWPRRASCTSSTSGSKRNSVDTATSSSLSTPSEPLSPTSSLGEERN
The description is as above. The settings on record: partners not purified.

The target in data set [4] is T3, human glycogen synthase 1 (GS1) H610E (human, UniProt P13807 1-737, H610E, phosphorylation at S8, S641 and S641/S645 probed by immunoblot (Fig. 4b)).
T3 construct: glycogen synthase 1 (muscle), human, encoded by GYS1, cDNA NM 002103; also called GS H610E; not shown: His6, N-terminal, cleaved
T3 sequence (looked up): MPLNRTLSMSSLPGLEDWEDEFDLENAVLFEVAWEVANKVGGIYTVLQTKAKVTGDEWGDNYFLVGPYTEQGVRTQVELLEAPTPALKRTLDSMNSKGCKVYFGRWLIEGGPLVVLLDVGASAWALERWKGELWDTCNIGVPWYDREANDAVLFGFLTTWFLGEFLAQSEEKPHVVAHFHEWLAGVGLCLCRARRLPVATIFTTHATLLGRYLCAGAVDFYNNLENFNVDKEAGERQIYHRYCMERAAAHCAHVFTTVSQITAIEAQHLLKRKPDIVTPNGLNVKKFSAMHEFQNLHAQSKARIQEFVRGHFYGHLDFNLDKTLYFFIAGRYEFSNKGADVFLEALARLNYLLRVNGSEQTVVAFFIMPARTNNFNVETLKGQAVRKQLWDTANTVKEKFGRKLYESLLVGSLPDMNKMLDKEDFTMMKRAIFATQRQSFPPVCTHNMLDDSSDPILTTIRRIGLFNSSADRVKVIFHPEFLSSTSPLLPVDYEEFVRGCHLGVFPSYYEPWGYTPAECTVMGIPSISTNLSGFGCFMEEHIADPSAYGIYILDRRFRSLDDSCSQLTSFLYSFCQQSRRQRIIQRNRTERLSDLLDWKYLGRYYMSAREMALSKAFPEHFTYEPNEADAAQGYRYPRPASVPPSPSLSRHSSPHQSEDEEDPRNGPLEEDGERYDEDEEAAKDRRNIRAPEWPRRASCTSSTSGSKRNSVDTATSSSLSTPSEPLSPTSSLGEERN
The description is as above. The settings on record: partners not purified.

B1: human glycogenin 1 (GN1) Y195F, full length, non-glucosylated (enzyme, UniProt P46976-2 1-333, looked up)
chain: MTDQAFVTLTTNDAYAKGALVLGSSLKQHRTTRRLVVLATPQVSDSMRKVLETVFDEVIMVDVLDSGDSAHLTLMKRPELGVTLTKLHCWSLTQYSKCVFMDADTLVLANIDDLFDREELSAAPDPGWPDCFNSGVFVYQPSVETYNQLLHLASEQGSFDGGDQGILNTFFSSWATTDIRKHLPFIYNLSSISIFSYLPAFKVFGASAKVVHFLGRVKPWNYTYDPKTKSVKSEAHDPNMTHPEFLILWWNIFTTNVLPLLQQFGLVKDTCSYVNVEDVSGAISHLSLGEIPAMAQPFVSSEERKERWEQGQADYMGADSFDNIKRKLDTYLQ
notes: glycogenin 1, human, encoded by GYG1, cDNA NM 001184720, full length; expected ~37.5 kDa; the C-terminal GN34 region is modelled as residues 300-332, which fits the 333-residue isoform; Cloned in pFL (with untagged GS) and in pFastBac (co-infected with His6-TEV-GS WT or mutants); Both carry an N-terminal His6 tag and a cleavable site, so they are treated as one molecule; also called GN(Y195F); GN …
One may read the stoichiometry N as the number of molecules, sites or subunits per partner or assembly. In the case of B1, the “stoichiometry N” value in data set [1] was found to be 2. Further, the binding result in data set [2], in data set [3] and in data set [4] was “binds” each time.

These data come from article PMC9188544, “Mechanism of glycogen synthase inactivation and interaction with glycogenin” (Nature Communications, 2022).
